The source of these data is PMC3378519, “Contribution of DEAF1 Structural Domains to the Interaction with the Breast Cancer Oncogene LMO4” (PLoS ONE, 2012).

The series concerns the molecule itself. The experiment in a line: SEC-MALS; SEC-MALLS; about 200 µg of protein on a Superose 12 column with in-line MALLS detector; weight-averaged molecular weight in solution.

B1: MBP-fused full length DEAF1, recombinant (natural protein, mouse, UniProt Q9Z1T5-1 1-566, looked up)
chain: MEDSDSAAKQLGLAEAAAVAAAAAVAAAAAAAAESEAEEPVLSRDEDSEEDADSEAERETRRVTAVAVMAAESGHMDMGTEALPSPDEAAAAAAAFAEVTTVTVANVGSSADNVFTTSVANAASISGHVLSGRTALQIGDSLNTEKATLIVVHTDGSIVETTGLKGPAAPLTPGPQSPPTPLAPGQEKGGTKYNWDPSVYDSELPVRCRNISGTLYKSRLGSGGRGRCIKQGENWYSPTEFEAMAGRASSKDWKRSIRYAGRPLQCLIQDGILNPHAASCTCAACCDDMTLSGPVRLFVPYKRRKKENELPTTPVKKDSPKNITLLPATAATTFTVTPSGQITTSGALTFDRASTVEATAVISESPAQGDVFAGATVQEAGVQPPCRVGHPEPHYPGYQDSCQIAPFPEAALPTSHPKIVLTSLPALAVPPSTPTKAVSPTVVSGLEMSEHRSWLYLEEMVNSLLNTAQQLKTLFEQAKQASSCREAAVTQARMQVDTERKEQSCVNCGREAMSECTGCHKVNYCSTFCQRKDWKDHQHVCGQSASVTVQADDVHVEESVIEKVAV
notes: DEAF1, mouse, NM_016874, full length; pMALC2 construct; about 10 subunits by SEC-MALLS, mixture of species; not shown: MBP, N-terminal, kept
Consider B1, for which the “stoichiometry N” value is about 10 subunits.

B2: GB1-tagged DEAF1_(454–487), isolated coiled coil, recombinant (domain or fragment, mouse, UniProt Q9Z1T5-1 454-487, looked up)
chain: WLYLEEMVNSLLNTAQQLKTLFEQAKQASSCREA
notes: DEAF1, mouse, NM_016874; source: E. coli Rosetta 2, purified (DEAE sepharose, Ni-NTA); not shown: His6, N-terminal, kept; GB1 (Gβ-1 domain of streptococcal protein G), N-terminal, kept
Turning to B2, the “stoichiometry N” value was 4 subunits.

B3: MBP-fused DEAF1_(335–485), recombinant (domain or fragment, mouse, UniProt Q9Z1T5-1 335-485, looked up)
chain: TVTPSGQITTSGALTFDRASTVEATAVISESPAQGDVFAGATVQEAGVQPPCRVGHPEPHYPGYQDSCQIAPFPEAALPTSHPKIVLTSLPALAVPPSTPTKAVSPTVVSGLEMSEHRSWLYLEEMVNSLLNTAQQLKTLFEQAKQASSCR
notes: DEAF1, mouse, NM_016874; pMALC2 construct; not shown: MBP, N-terminal, kept
Regarding B3, the “stoichiometry N” value was found to be 4 subunits.

B4: DEAF1_(404–479), recombinant protein for SEC-MALLS (domain or fragment, mouse, UniProt Q9Z1T5-1 404-479, looked up)
chain: IAPFPEAALPTSHPKIVLTSLPALAVPPSTPTKAVSPTVVSGLEMSEHRSWLYLEEMVNSLLNTAQQLKTLFEQAK
notes: DEAF1, mouse, NM_016874; source: recombinant
In the case of B4, the binding result is “binds”.
